From US20070265199A1 (UNIVERSITY OF ROCHESTER, published 2007)

Legend:
factor IXaβ [1] = molecular target: T1, factor IXaβ (UniProt P00740 47-191; P00740 227-461); assay: factor Xa generation assay on activated platelets (SFLLRN-amide), factor IXa titrated with factor VIIIa
T1 construct: Bought reagent
Description: (§1) Factor VIII cofactor activity, factor IXa-factor VIIIa affinity, and kinetic parameters were determined using factor Xa generation assays. Reactions were performed in the presence of either phospholipid vesicles, non-activated platelets, or platelets activated by SFLLRN-amide (50 μM).

factor IXaβ [2] = molecular target: T1, factor IXaβ; assay: factor Xa generation assay on phospholipid vesicles, factor IXa titrated with factor VIIIa
Description: as §1

factor IXaβ [3] = molecular target: T1, factor IXaβ; assay: factor Xa generation assay on non-activated platelets, factor IXa titrated with factor VIIIa
Description: as §1

T1 sequence (P00740 47-191 limits assumed, form in doubt, chain 1 of 2): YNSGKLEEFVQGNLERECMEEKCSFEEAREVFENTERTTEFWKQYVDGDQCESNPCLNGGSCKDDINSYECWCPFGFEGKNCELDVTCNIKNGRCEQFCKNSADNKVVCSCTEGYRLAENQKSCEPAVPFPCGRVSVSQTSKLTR
T1 sequence (P00740 227-461 limits assumed, form in doubt, chain 2 of 2): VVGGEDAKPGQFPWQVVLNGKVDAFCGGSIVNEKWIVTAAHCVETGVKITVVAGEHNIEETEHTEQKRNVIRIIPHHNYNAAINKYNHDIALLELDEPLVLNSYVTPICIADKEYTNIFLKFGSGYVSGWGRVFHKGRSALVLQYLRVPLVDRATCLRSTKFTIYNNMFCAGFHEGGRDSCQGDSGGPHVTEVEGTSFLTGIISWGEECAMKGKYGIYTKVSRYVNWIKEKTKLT

- Kd (factor IXaβ [1]): 6 nM
- Kd (factor IXaβ [2]): 5 nM
- Kd (factor IXaβ [3]): 5.7 nM
B1: factor VIIIa E113A (thrombin-activated B-domainless factor VIII bearing Glu113Ala) (other)
chain 1: ATRRYYLGAVELSWDYMQSDLGELPVDARFPPRVPKSFPFNTSVVYKKTLFVEFTVHLFNIAKPRPPWMGLLGPTIQAEVYDTVVITLKNMASHPVSLHAVGVSYWKASEGAAYDDQTSQREKEDDKVFPGGSHTYVWQVLKENGPMASDPLCLTYSYLSHVDLVKDLNSGLIGALLVCREGSLAKEKTQTLHKFILLFAVFDEGKSWHSETKNSLMQDRDAASARAWPKMHTVNGYVNRSLPGLIGCHRKSVYWHVIGMGTTPEVHSIFLEGHTFLVRNHRQASLEISPITFLTAQTLLMDLGQFLLFCHISSHQHDGMEAYVKVDSCPEEPQLRMKNNEEAEDYDDDLTDSEMDVVRFDDDNSPSFIQIR
chain 2: SVAKKHPKTWVHYIAAEEEDWDYAPLVLAPDDRSYKSQYLNNGPQRIGRKYKKVRFMAYTDETFKTREAIQHESGILGPLLYGEVGDTLLIIFKNQASRPYNIYPHGITDVRPLYSRRLPKGVKHLKDFPILPGEIFKYKWTVTVEDGPTKSDPRCLTRYYSSFVNMERDLASGLIGPLLICYKESVDQRGNQIMSDKRNVILFSVFDENRSWYLTENIQRFLPNPAGVQLEDPEFQASNIMHSINGYVFDSLQLSVCLHEVAYWYILSIGAQTDFLSVFFSGYTFKHKMVYEDTLTLFPFSGETVFMSMENPGLWILGCHNSDFRNRGMTALLKVSSCDKNTGDYYEDSYEDISAYLLSKNNAIEPR
chain 3: SFQKKTRHYFIAAVERLWDYGMSSSPHVLRNRAQSGSVPQFKKVVFQEFTDGSFTQPLYRGELNEHLGLLGPYIRAEVEDNIMVTFRNQASRPYSFYSSLISYEEDQRQGAEPRKNFVKPNETKTYFWKVQHHMAPTKDEFDCKAWAYFSDVDLEKDVHSGLIGPLLVCHTNTLNPAHGRQVTVQEFALFFTIFDETKSWYFTENMERNCRAPCNIQMEDPTFKENYRFHAINGYIMDTLPGLVMAQDQRIRWYLLSMGSNENIHSIHFSGHVFTVRKKEEYKMALYNLYPGVFETVEMLPSKAGIWRVECLIGEHLHAGMSTLFLVYSNKCQTPLGMASGHIRDFQITASGQYGQWAPKLARLHYSGSINAWSTKEPFSWIKVDLLAPMIIHGIKTQGARQKFSSLYISQFIIMYSLDGKKWQTYRGNSTGTLMVFFGNVDSSGIKHNIFNPPIIARYIRLHPTHYSIRSTLRMELMGCDLNSCSMPLGMESKAISDAQITASSYFTNMFATWSPSKARLHLQGRSNAWRPQVNNPKEWLQVDFQKTMKVTGVTTQGVKSLLTSMYVKEFLISSSQDGHQWTLFFQNGKVKVFQGNQDSFTPVVNSLDPPLLTRYLRIHPQSWVHQIALRMEVLGCEAQDLY
notes: also called factor VIII E113A; Factor VIII:E113A
